Sequences and labels used below:
T1: CCP16, two-hybrid prey clone E2F5BBC1 (Arabidopsis thaliana, UniProt Q9FNY3 1-292)
T1 construct: partial protein read from the clone; also called DPa; AtDPa
T1 sequence: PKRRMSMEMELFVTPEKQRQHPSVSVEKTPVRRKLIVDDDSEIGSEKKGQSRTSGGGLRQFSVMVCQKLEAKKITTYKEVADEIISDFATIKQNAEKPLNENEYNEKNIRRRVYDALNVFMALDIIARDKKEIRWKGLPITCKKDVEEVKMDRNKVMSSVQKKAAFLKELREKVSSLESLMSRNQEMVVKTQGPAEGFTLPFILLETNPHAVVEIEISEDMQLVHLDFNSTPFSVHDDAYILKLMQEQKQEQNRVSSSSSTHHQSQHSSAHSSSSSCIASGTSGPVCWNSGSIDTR

T2: GAL4 transactivation domain fusion of AtDPa 1-292 (prey in pAD-GAL424) (Arabidopsis thaliana, UniProt Q9FNY3 1-292)
T2 construct: also called full-length AtDPa prey
T2 sequence: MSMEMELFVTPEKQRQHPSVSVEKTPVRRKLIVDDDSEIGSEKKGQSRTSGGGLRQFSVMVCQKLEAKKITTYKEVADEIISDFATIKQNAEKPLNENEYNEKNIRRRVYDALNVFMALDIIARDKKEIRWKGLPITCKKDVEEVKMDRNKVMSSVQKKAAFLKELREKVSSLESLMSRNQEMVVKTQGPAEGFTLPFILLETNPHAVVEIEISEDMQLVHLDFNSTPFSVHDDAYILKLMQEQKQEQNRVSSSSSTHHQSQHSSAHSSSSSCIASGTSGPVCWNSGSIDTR

B1: c-myc-tagged AtDPa 121-213, in vitro translated (other)
chain: EQKLISEEDLEQKLISEEDLIIARDKKEIRWKGLPITCKKDVEEVKMDRNKVMSSVQKKAAFLKELREKVSSLESLMSRNQEMVVKTQGPAEGFTLPFILLETNPHAVVEIEI
notes: also called c-myc-AtDPa 121-213; predicted dimerization domain of the AtDPa
B2: GAL4 transactivation domain fusion of AtE2Fa 226-356 (prey of Table V) (other, not shown: large carriers)
chain: NRILWKGVDACPGDEDADVSVLQLQAEIENLALEEQALDNQIRQTEERLRDLSENEKNQKWLFVTEEDIKSLPGFQNQTLIAVKAPHGTTLEVPDPDEAADHPQRRYRIILRSTMGPIDVYLVSEFEGKFE
notes: its construction is not described
B3: c-myc-tagged AtDPa 172-292, in vitro translated (other)
chain: EQKLISEEDLEQKLISEEDLSLESLMSRNQEMVVKTQGPAEGFTLPFILLETNPHAVVEIEISEDMQLVHLDFNSTPFSVHDDAYILKLMQEQKQEQNRVSSSSSTHHQSQHSSAHSSSSSCIASGTSGPVCWNSGSIDTR
notes: also called c-myc-AtDPa 172-292
B4: pGBTE2Fa226-356: GAL4 DNA-binding domain fusion of AtE2Fa amino acids 226-356 (other)
chain: MKLLSSIEQACDICRLKKLKCSKEKPKCAKCLKNNWECRYSPKTKRSPLTRAHLTEVESRLERLEQLFLLIFPREDLDMILKMDSLQDIKALLTGLFVQDNVNKDAVTDRLASVETDMPLTLRQHRISATSSSEESSNKGQRQLTVSNRILWKGVDACPGDEDADVSVLQLQAEIENLALEEQALDNQIRQTEERLRDLSENEKNQKWLFVTEEDIKSLPGFQNQTLIAVKAPHGTTLEVPDPDEAADHPQRRYRIILRSTMGPIDVYLVSEFEGKFE
notes: also called E2F5 dimerisation domain; E2Fa (=E2F5) dimerization domain
B5: pGBTE2Fb 1-127: GAL4 DNA-binding domain fusion of AtE2Fb amino acids 1-127 (other)
chain: MKLLSSIEQACDICRLKKLKCSKEKPKCAKCLKNNWECRYSPKTKRSPLTRAHLTEVESRLERLEQLFLLIFPREDLDMILKMDSLQDIKALLTGLFVQDNVNKDAVTDRLASVETDMPLTLRQHRISATSSSEESSNKGQRQLTVSMSEEVPQQFPSSKRQLHPSLSSMKPPLVAPGEYHRFDAAETRGGGAVADQVVSDAIVIKSTLKRKTDLVNQIVEVNELNTGVLQTPVSGKGGKAKKTSRSAKSNKSGTLASGSNAGSPGNNFAQAGT
B6: GAL4 transactivation domain fusion of AtDPb 1-385 (prey in pAD-GAL424) (other, not shown: large carriers)
chain: MTTTGSNSNHNHHESNNNNNNPSTRSWGTAVSGQSVSTSGSMGSPSSRSEQTITVVTSTSDTTFQRLNNLDIQGDDAGSQGASGVKKKKRGQRAAGPDKTGRGLRQFSMKVCEKVESKGRTTYNEVADELVAEFALPNNDGTSPDQQQYDEKNIRRRVYDALNVLMAMDIISKDKKEIQWRGLPRTSLSDIEELKNERLSLRNRIEKKTAYSQELEEQYVGLQNLIQRNEHLYSSGNAPSGGVALPFILVQTRPHATVEVEISEDMQLVHFDFNSTPFELHDDNFVLKTMKFCDQPPQQPNGRNNSQLVCHNFTPENPNKGPSTGPTPQLDMYETHLQSQQHQQHSQLQIIPMPETNNVTSSADTAPVKSPSLPGIMNSSMKPEN
notes: also called full-length AtDPb prey

Assay [1] has as its target T3, HA-tagged wild-type AtE2Fb, in vitro translated (Arabidopsis, UniProt Q9FV71 1-469).
T3 construct: wild-type (whole) protein; also called HA-AtE2Fb; E2F3
In words: co-immunoprecipitation (anti-HA) of in vitro co-translated tagged proteins, SDS-PAGE autoradiography. As to the method:
(§1) In vitro transcription and translation experiments were performed using the TNT T7-coupled wheat germ extract kit (Promega) primed with appropriate plasmids for 90 min at 30° C. For immunoprecipitation, 10 μl of the total in vitro translated extract (50 μl) was diluted at 1:5 in Nonidet P40 buffer (50 mM Tris, pH 7.4, 150 mM NaCl, 1% Nonidet P40, 1 mM phenylmethylsulfonyl fluoride, 10 μg/ml leupeptin/aprotinin/pepstatin) and incubated for 2 h at 4° C. with anti-c-myc (9E10; BabCo) or anti-HA (16B12; BabCo) antibodies. Protein-A-Sepharose (40 μl 25% (v/v)) was added and incubated for 1 h at 4° C., then the beads were washed four times with Nonidet P40 buffer. Immune complexes were eluted with 10 μl […] sodium dodecyl sulfate (SDS) sample buffer and analyzed by 10% or 15% SDS-PAGE and by autoradiography.
(§2) Similar results were obtained by two-hybrid analysis (see Table 5 of Example 12). To test whether the structural requirements for heterodimerization of the AtDPs were similar to those of their animal homologs, several deletion mutants of AtDPa and AtDPb were constructed (for a schematic illustration, see FIGS. 52 and 53), tagged with the c-myc epitope (FIGS. 54 and 55, panels A). The interactions between the mutant AtDPs and AtE2Fb were analyzed in immunoprecipitation experiments with the specific anti-HA or anti-c-myc antibodies ([…], panels B and C, respectively). […]

Assay [2] deals with T4, empty pGBT9 (GAL4 DNA-binding domain alone) (UniProt P04386 1-147).
T4 construct: empty bait vector, control for specificity; also called pBGT9
In words: yeast two-hybrid, growth on His- minimal medium; empty bait vector control; legend: -, no interaction. Here is the method: (§3) Different combinations between bait (pGBTE2Fa226-356, pGBTE2Fb-Rb, or pGBTE2Fb 1-127, SEQ ID NO:207) and prey constructs were transformed into yeast cells and assayed for their ability to grow on His⁻ minimal media after 3 days of incubation at 30° C. Bait plasmids co-transformed with empty pAD-GAL424 and prey plasmids co-transformed with empty pGBT9 were assessed along as controls for the specificity of the interaction.
(§4) Different combinations between AtE2Fs bait and AtDPs prey constructs were tested for growth on His minimal media. −, no interaction; +, positive interaction; NT, not tested.

Assay [3] has as its target B5. In words: yeast two-hybrid, growth on His- minimal medium; legend: -, no interaction.
For assay [4], the target named is B4. The description is as above.
Assay [5] addresses T5, pGBTE2Fb-Rb: GAL4 DNA-binding domain fusion of AtE2Fb amino acids 1-385 (lacking the Rb-binding domain) (Arabidopsis).
T5 construct: also called E2F3 N-terminal; E2Fb (=E2F3) N-terminal domain
The description is as above.

In assay [6] the target is T3, HA-tagged wild-type AtE2Fb, in vitro …. In words: co-immunoprecipitation (anti-HA and anti-c-myc) of in vitro co-translated tagged proteins, SDS-PAGE autoradiography. As to the method: as §1, §2
In assay [7] the target is T1, CCP16, two-hybrid prey clone E2F5BBC1. The assay is described as follows: yeast two-hybrid library screen (GAL4, His prototrophy in HF7c); prey clone isolated with this bait. Here is the method:
For library screening, vectors and strains (HF7c) were provided with the Matchmaker two-hybrid system (Clontech). The dimerization and DNA-binding domains of the AtE2Fa (amino acids 226-356; SEQ ID NO:205) were amplified by polymerase chain reaction (PCR) and subcloned in-frame with the GAL4 DNA-binding domain of pGBT9 (Clontech) to create the bait plasmid pGBTE2Fa226-356. Screens were performed as described previously (De Veylder et al. 1999; Planta 208, 453-462). A second library screening was performed with the AtE2Fb construct (pGBTE2Fb-Rb) lacking the Rb-binding domain (amino acids 1-385; SEQ ID-NO:206). Plasmids from interacting clones were isolated and sequenced.

In assay [8] the target is B6. In words: yeast two-hybrid, growth on His- minimal medium; legend: +, positive interaction. Here is the method:
as §3, §4

Assay [9] deals with T2, GAL4 transactivation domain fusion of …. Described as above. As to the method: as §3, §4
Assay [10] has as its target B6. In words: yeast two-hybrid, growth on His- minimal medium; legend: -, no interaction.
Assay [11] deals with T2, GAL4 transactivation domain fusion of …. The description is as above.
Assay [12] deals with T5, pGBTE2Fb-Rb: GAL4 DNA-binding domain …. In words: yeast two-hybrid, growth on His- minimal medium; legend: +, positive interaction. Here is the method:
as §3, §4

Assay [13] deals with T6, pGBT DPa 1-292: GAL4 DNA-binding domain fusion of AtDPa 1-292 (Arabidopsis thaliana).
T6 construct: its construction is not described
The assay is described as follows: yeast two-hybrid, growth on His- minimal medium; legend: -, no interaction.

Assay [14] has as its target T7, pGBT DPb 1-385: GAL4 DNA-binding domain fusion of AtDPb 1-385 (Arabidopsis thaliana).
T7 construct: its construction is not described
The description is as above.

T3 sequence (Q9FV71 1-469, tags or fused parts left off): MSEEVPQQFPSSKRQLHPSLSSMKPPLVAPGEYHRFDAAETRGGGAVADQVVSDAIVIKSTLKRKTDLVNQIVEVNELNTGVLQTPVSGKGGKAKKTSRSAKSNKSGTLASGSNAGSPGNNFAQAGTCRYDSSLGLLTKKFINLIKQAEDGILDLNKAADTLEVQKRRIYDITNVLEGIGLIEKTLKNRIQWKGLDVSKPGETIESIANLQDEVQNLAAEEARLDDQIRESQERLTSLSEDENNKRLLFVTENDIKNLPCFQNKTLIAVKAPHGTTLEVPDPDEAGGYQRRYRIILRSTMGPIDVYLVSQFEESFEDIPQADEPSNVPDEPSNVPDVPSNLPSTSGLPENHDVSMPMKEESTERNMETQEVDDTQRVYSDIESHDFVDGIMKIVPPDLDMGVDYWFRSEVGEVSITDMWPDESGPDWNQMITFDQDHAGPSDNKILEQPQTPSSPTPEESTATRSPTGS

Turning to B1, in [1], the binding result is recorded as “no binding”.

Take B2: the binding result in assay [2], in assay [3], in [4] and in assay [5] was “no binding” each time.

As to B3, the binding result in assay [6] is “no binding”.

B4: the binding result in assay [7], in assay [8] and in assay [9] was “binds” throughout.

Take B5: the binding result in [10] and in assay [11] was “no binding” in each case.

Turning to B6, the figures for the binding result in assay [12], in [13] and in assay [14] were “binds”, “no binding” and “no binding”, respectively.

For the origin of these results see patent US20080207449A1 (CROPDESIGN N V, published 2008).
